Measured values from US20130157959.

Target: in vitro translated 35S-labelled p53 (wild-type) (UniProt P04637)

For “GST-Hades RING-mutant peptide (C302S/C305S)”, the “in vitro ubiquitination of p53 with E1, E2 (UbcH5c) and His-ubiquitin, anti-p53 immunoblot” value was “The p53 ubiquitination was only induce by Hades”.
